Test results as given in paper PMC7914648 (Pharmaceuticals, 2021).
“Also recorded” adds a separate entry of the source.

What was measured:
[1] = Aqueous solubility determination; type: physicochemical
Procedure: For TAT-PAPTP and An2-PAPTP, three distinct suspensions were prepared by diluting 25 mM stock solutions in DMSO to 100 μM, in 0.9% NaCl saline or water (DMSO < 0.4%). The suspensions were sonicated 5 min and immediately analyzed. The suspensions were then centrifuged at 12,000× g, 18 °C, for 1 and 2 h, and the supernatants were analyzed by HPLC/UV at the end of each centrifugation. An additional analysis was performed after 24 h of standing. The chromatographic peak areas were used to determine the concentration of the compound in the supernatants, based on calibration curves built using solutions in DMSO.

C57BL mice = test: Observed toxicity after tail vein injection; type: in vivo; details: 5 µmoles/kg bw by tail vein injection in mouse plasma; no proper toxicological study
Procedure: TAT-PAPTP (5 µmoles/kg bw) was administered by tail vein injection to 2 C57BL mice. […] The observed toxicity was not due to the use of plasma, since mice were not made ill by the administration of PAPTP or An2-PAPTP in the same vehicle (see below, Section 2.7).
A stock solution of the peptide-PAPTP conjugates was prepared in DMSO. TAT-PAPTP was administered at 8 and 5 μmol/kg bw and An2-PAPTP only at 5 μmol/kg bw. The calculated quantity of drugs was diluted from the stock solution in saline or mouse plasma to a final volume of 200 μL.

mouse Red Blood Cells = test: Haemolysis assay; type: cell-based; details: 5 × 10^7 mouse erythrocytes in 1 mL PBS pH 7.4, 2, 1 or 0.5 µM, 15 min, absorbance 540 nm, n = 3
Procedure: Haemolysis studies were conducted as described in [72]. Briefly, freshly withdrawn blood samples were centrifuged at 1000× g for 10 min to obtain erythrocytes; the pellet was then washed thrice with sterile PBS (pH 7.4). Erythrocytes (5 × 10^7 cells in 1 mL of PBS for each experimental condition) were incubated with 2, 1 or 0.5 µM An2-PAPTP or TAT-PAPTP for 15 min. The samples were then centrifuged and absorbance (Abs) of the supernatant was measured at 540 nm. Triton X-100 1% and PBS were used as positive and negative control, respectively.
The percentage of haemolysis was calculated with the following equation:% haemolysis = [(Abssample − AbsPBS)/AbsTriton X-100 − AbsPBS)] × 100

SMILES: CC[C@H](C)[C@H](NC(=O)Oc1ccc(CCCOc2ccc([P+](CCCc3ccc(OCCCCOc4c5ccoc5cc5oc(=O)ccc45)cc3)(c3ccccc3)c3ccccc3)cc2)cc1)C(=O)N[C@H](C(=O)N[C@@H](Cc1ccccc1)C(=O)N[C@@H](Cc1ccccc1)C(=O)N[C@@H](Cc1ccc(O)cc1)C(=O)NCC(=O)NCC(=O)N[C@@H](CO)C(=O)N[C@@H](CCCNC(=N)N)C(=O)NCC(=O)N[C@@H](CCCCN)C(=O)N[C@@H](CCCNC(=N)N)C(=O)N[C@@H](CC(N)=O)C(=O)N[C@@H](CC(N)=O)C(=O)N[C@@H](Cc1ccccc1)C(=O)N[C@@H](CCCCN)C(=O)N[C@H](C(=O)N[C@@H](CCC(=O)O)C(=O)N[C@@H](CCC(=O)O)C(=O)N[C@@H](Cc1ccc(O)cc1)C(=O)O)[C@@H](C)O)[C@@H](C)O [An2-PAPTP]
- solubility in 10 mM phosphate buffer ([1]; 10 mM phosphate buffer, supernatants after centrifugation, HPLC): precipitated
- solubility in 0.9% NaCl saline ([1]; 0.9% NaCl saline, kinetic, 25 mM DMSO stock diluted to 100 μM (DMSO < 0.4%), sonicated 5 min, centrifuged 12,000 × g 18 °C 1 and 2 h, supernatant HPLC/UV, detection limit 0.1 µM): precipitated in saline; also recorded: insoluble in saline
- solubility in water ([1]; water, kinetic, 25 mM DMSO stock diluted to 100 μM (DMSO < 0.4%), sonicated, centrifuged 12,000 × g 18 °C, supernatant HPLC/UV): above 100 μM
- observed toxicity in mice (C57BL mice): not made ill; also recorded: considerably less toxic than TAT-PAPTP; also recorded: did not show toxicity
- haemolysis (release of haemoglobin) (mouse Red Blood Cells): did not induce a measurable release of haemoglobin
